Experiments:
[1] = molecular target: LGTV NS2B/3pro_D19A_E117A (Langat virus) (UniProt P29837); assay: pull-down
[2] = molecular target: LGTV NS2B/3pro_E117A (Langat virus) (UniProt P29837); assay: pull-down

Substance: GFP-tagged TRAF6 (TRAF6-GFP) (from UniProt Q9Y4K3 1-522) (natural protein)
- percent decrease in pull down of TRAF6 relative to NS2B/3pro WT (densitometry) [1]: 58.6%
- percent decrease in pull down of TRAF6 relative to NS2B/3pro WT (densitometry) [2]: 56.1%

From PMC6536497
